{
  "source": "the DeepSol protein solubility set",
  "test": "soluble on expression in E. coli; label from the status in PepcDB or PDB records",
  "data": [
    {"sequence": "GPGSMGSGYLKRKRQRQELLNDFYSALSLSSFDTTSGQFSKLVTRTVYHYPSSLPFPVLLDDDFPAEPYRSRNKDIKSAIHWGQRKLLLSEIQLLSMYCRPEISYHIVYAGAAPGTHLAFLDEMFSCRHTWELIDPGQFDRAVLEPRANFRLRNEFFTNATAYGINARRLTEVLPALGFVYQNVAVDSVQVDKKAIHEQLQDIVGTLDVARGTEDIPAMYEAPLSLPKGLELLAQVALERNKPLLFISDIRSGSVALPNFEDHVAENMRAQECWTNILHGEHSMLKFRLPYTSKSTKFGGQGAVRETLLIREDGTVPYLRGDMLLPIWTRPTSTEGRLVVPQGAFQKDYNVAHVEDQFFFFNSSVREQVHFNHLVAHDSELDHHYDAAAEVHCLLTYLRFIRPELKTAKTGELRKEVLRVAHSITAHLGITFEDAIRRRDALMINHAKKSQNKAVEGHKDDAYGDEEAEEQEAKSAASKVRAGSNESAAAADGAATSTTAPVPPSEWEQTTRLMVRLSNYDRNRSVWSRNVREEEHSKTSGFWVTTKMPQA", "values": [
      {"measurement": "soluble on expression in E. coli", "result": "not soluble"}
    ]},
    {"sequence": "NSESKSTPKRLHVSNIPFRFRDPDLRQMFGQFGKILDVEIIFNERGSKGFGFVTFENSADADRAREKLHGTVVEGRKIEVNNATARVMTN", "values": [
      {"measurement": "soluble on expression in E. coli", "result": "soluble"}
    ]},
    {"sequence": "MDTEDTSGYSSLKSSPQSSDENFFKRLQWGKIRLELKTPEFLKESSELEIEKNEKSGIQKCGENEGENEEKCEFRPVVTPNEIDSHKEWYHRLLMLKLEYKRGERGAFPPFPPPPLPSMMIAASNAVSFNAFDEVKRAAQAKTAKSPSTSSLERRAQRFCPADFQPLPPPHIYIEMIRTLAPHQYIDLTYALAGSVLLEMGVKIPDRYPNLPPKIEPYRDIESEEAAHWTEMSSQSSSEGEYSDASESAKLVQTLNRRKNKERRETRKIRIVASMLTSSTFSMKKKRKNEGLDFKHETFPRDYDYKEKTLSTFIPPRIARRPPIPPPQFFFPPSPHFSREPHSLPPMPMMLPIPLPPMSLSSPISPIHFQKNLQSTPERPSRTDSSRVHAKQIKNDIIIVEKVTDV", "values": [
      {"measurement": "soluble on expression in E. coli", "result": "not soluble"}
    ]},
    {"sequence": "MGHHHHHHSHMFGCLVAGRLVQTAAQQVAEDKFVFDLPDYESINHVVVLMLGTIPFPEGMGGSVYFSYPDSMDASMALLGFVTNGKPSAIFKISGLKSGEGSQHPFGAMNIVRTPSVAQIGISVELLDSMAQQTPVGNAAVSSVDSFTQFTQKMLDNFYNFASSFAVSQAQMTPSPSEMFIPANVVLKWYENFQRRLAQNPLFWKT", "values": [
      {"measurement": "soluble on expression in E. coli", "result": "not soluble"}
    ]},
    {"sequence": "SIMTVRTTHTEVEVHAGGTVELPCSYQLANDTQPPVISWLKGASPDRSTKVFKGNYNWQGEGLGFVESDSYKESFGDFLGRASVANLAAPTLRLTHVHPQDGGRYWCQVAQWSIRTEFGLDAKSVVLKVTGHTPSNNVHVSTAEVVQVDEGNDITMTCPCTDCANANVTWYTGPTFFENYETGTYQPLANKNQFGITWFSSEIAGRASFSGARNLVIRAAKITDAGRVWCELATGQGELDADRSSTILKV", "values": [
      {"measurement": "soluble on expression in E. coli", "result": "soluble"}
    ]},
    {"sequence": "MGSDKIHHHHHHMKETWISERRMIQLPGLTIDRHISAPNELEFPGCKYHLLCILLSDHNQQKMTRIGEQESQKSQAKGDFWICPAKMSGIWSWNSTDESLTFVIDPLFLSRMAEEVGELNESKVELLSTVNAHDPQIEAIARLFQAEFDTGGLGGHLYAESLIQVLIVHLLRQYCAFSPKIKPDVGSMPNNRLQPVFDYIHSYLDRPLLLAELAEISGISQYYFCRLFKQSMGVAPYQYVLQQRMEKAKELLHQRKYAIAEIALLVGCADQSRFTRHFKKYVGVTPRMFLSKK", "values": [
      {"measurement": "soluble on expression in E. coli", "result": "not soluble"}
    ]},
    {"sequence": "MEFIGDTRIVIINPLGAKKICRLTFEQIKVIYQEVKTHFENYRIIFTGLPQDLLTIPILEIETLPFDEFIYTVALTKYSDFVISVDTALVHIAAAYHKPTLAFYPNSRTPEYPSHLIWSPNHHKSIQIVSPTYTVKDIDTETLTNSVKRLEHHHHHH", "values": [
      {"measurement": "soluble on expression in E. coli", "result": "not soluble"}
    ]},
    {"sequence": "MAIDPAAAYASAIRTPGLLPNAKLVVDHFHVTTLANDALTAVRRRVTWAFHDRRGRKIDPQWANRRRLLTARERLSDKSFAKMRNRINAVDPRAQILSAWIAKEELRTLLSTVRTGGDPHLARHHLHRFLPGASTRRSPNCSPWPPPLTSHPRSTPSWSPASPTRASVVGEVAEMLGDIDGQCVQVEVPVPERGPAGCGGLDGLGRAGVSATPRVCAAMTAVNVAGRCAGQQADVGPTPQHRCRGR", "values": [
      {"measurement": "soluble on expression in E. coli", "result": "soluble"}
    ]},
    {"sequence": "GLKEHDFNPEEAEETKQVSWKLVTEYAMETKCDDVLLLLGMYLEFQYSFEMCLKCIKKEQPSHYKYHEKHYANAAIFADSKNQKTICQQAVDTVLAKKRVDSLQLTREQMLTNRFNDLLDRMDIMFGSTGSADIEEWMAGVAWLHCLLPKMDSVVYDFLKCMVYNIPKKRYWLFKGPIDSGKTTLAAALLELCGGKALNVNLPLDRLNFELGVAIDQFLVVFEDVKGTGGESRDLPSGQGINNLDNLRDYLDGSVKVNLEKKHLNKRTQIFPPGIVTMNEYSVPKTLQARFVKQIDFRPKDYLKHCLERSEFLLEKRIIQSGIALLLMLIWYRPVAEFAQSIQSRIVEWKERLDKEFSLSVYQKMKFNVAMGIGVLD", "values": [
      {"measurement": "soluble on expression in E. coli", "result": "soluble"}
    ]},
    {"sequence": "AMGVPCVEDEDFIQALDKMMLENLQQRSGESVKVHQLDVAIPLHLKSQLRKGPPLGGGEGEAESADTMPFVMLTRKGNKQQFKILNVPMSSQLAANH", "values": [
      {"measurement": "soluble on expression in E. coli", "result": "soluble"}
    ]},
    {"sequence": "DGSFQGSVFVAVDIGERKRTEQALRENEQHLKNILDSIHAGILVIDPQDHRIVDANTFALDMIGAPKGLVVDRICHNFVCSAVQGACPITDLLENMDNSERRLLRFDGTSIPILKSVVPVTYQGRKLLIESFID", "values": [
      {"measurement": "soluble on expression in E. coli", "result": "not soluble"}
    ]},
    {"sequence": "MLNGSCLCGRVAYTVDGPLADVVNCHCAMCRKAHGAAFRTRATVRAEHFAFVRGESDITWYSSSPGNYRGFCSACGTPLLSRFDQTPDVYALPLGALDDDPGVKAACHVYVAHKAPWHDITDDLPRHPEGRPG", "values": [
      {"measurement": "soluble on expression in E. coli", "result": "not soluble"}
    ]},
    {"sequence": "MAAETTSEDVKLAASFKDASKLGIDQKSGIPRKVKGTLTWRLELKRTNDGFWISAFFKGASKKKISIKAEFTLLCAGQEPLNKTEKKDSDCTKKSTEYEVCAMFTECETENHFEKGSDLRFEVELTIVMENSSKKSSVKPKPEAKQEPTKENDKIVGSESMMLDQLTSKLFLKASEGARIISNEIINDLLDIANRFDVPEVKTKCEQFLLEDLKKALKEKMETAEKYELDCLQAVKSADDALANSLEKLAIK", "values": [
      {"measurement": "soluble on expression in E. coli", "result": "not soluble"}
    ]},
    {"sequence": "KSEHETRLEAKLFEDYSSVVRPVEDHREIVQVTVGLQLIQLINVDEVNQIVTTNVRLKQQWVDYNLKWNPDDYGGVKKIHIPSEKIWRPDVVLYNNADGDFAIVKFTKVLLDYTGHITWTPPAIFKSYCEIIVTHFPFDEQNCSMKLGTRTYDGSAVAINPESDQPDLSNFMESGEWVIKEARGWKHWVFYSCCPTTPYLDITYHFVMQRLP", "values": [
      {"measurement": "soluble on expression in E. coli", "result": "soluble"}
    ]},
    {"sequence": "MGRQGSLALLLSIILIGETIANEYDGLSSHQSHQSTVTSAPIHVSEQQTSRNRPYNQPQLQQKPSVLTQSYQVLPESRNYYQYPQYLPTHTGYSNIQTVGQPYQMYGSAPGSNVVSGGNSESYGYNQQAPVPTVAPAPVHFSERQRSYSAAPTPPSPFSETRERENNNVRAPGHHAPAQQGHRSPSPPPSPFMINPKPVLSYGAANPFLANLPPAQGVYGAPIDSSHRGYDGFSLSAPAPPSGSSASVDDTWEALEASLDANTRRRHRIF", "values": [
      {"measurement": "soluble on expression in E. coli", "result": "not soluble"}
    ]},
    {"sequence": "MDYDRYKLFVGGIAKETSEEALKQYFSRYGAVLEAVVAKEKVTGKPRGFGFVRFANDCDVVKALRDTHFILGKPVDVRKAIRKHELYQQPFSMQFLERKVQQMNGGLREMSSNGVTSRTKKIFVGGLSSNTTEEEFKSYFERFGRTTDVVVMHDGVTNRPRGFGFVTYDSEDSVEVVMQSNFHELSDKRVEVKRAIPKEGIQSNNGNAVNIPPSYSSFQATPYVPEQNGYGMVLQFPPPVFGYHHNVQAVQYPYGYQFTAQVANVSWNNPIMQPTGFYCAPPHPTPPPTNNLGYIQYMNGFDLSGTNISGYNPLAWPVTGDAAGALIHQFVDLKLDVHSQAHQRMNGGNMGIPLQNGTYI", "values": [
      {"measurement": "soluble on expression in E. coli", "result": "soluble"}
    ]},
    {"sequence": "MGSDKIHHHHHHMELGIIYSGEFGKRFVSNLAYPYLCPTFGACGINGCDYCKRYDFSSSIVYAKELAEPQEIGLYVEEPESYLEPFECDIAVAINVHPDILVSLPEIGEFKALIVPACNQNWCLPGLRKQLAEKCGELGIEFASPKPFCSLTGNSGWISRFIDEFKIGRPEFRVERGGDAIKKVEVIKSDPCGSAYFVAKRMTGYIIESKEDFWKEIHQHQCAYPCMASMDRDVELKEAPFHLAGYIMVYQFSTAAGVEAEEFVPEHFREIVCRAR", "values": [
      {"measurement": "soluble on expression in E. coli", "result": "not soluble"}
    ]}
  ]
}
